Reference: patent publication US9389182B2 (University of Southern California, priority 2011, dated 2016)
One block for each molecule: values may come before it.

Experiments:
purified 20S proteasome = molecular target: T1, purified 20S proteasome (Homo sapiens, UniProt P28072+P28074+Q99436); assay: Degradation of native and oxidized AMC-labeled proteins by purified 20S proteasome; assay type: biochemical; settings: for increase in susceptibility to proteasomal degradation: following mild oxidation with H2O2 (1.0 mM); for substrate for the purified proteasome: unoxidized form
T1 construct: purchased Biomol PW8720-0050
Description: (§1) FIG. 7. Proteolytic Susceptibility of Modified AMC-labeled Proteins. (A) The capacity of 20S proteasome to degrade both the native and oxidized forms of Hb-AMC and BSA-AMC was measured. For both assays, 1 μg/ml of purified 20S proteasome was combined with 10 μg/ml of Hb-AMC, Hbox-AMC, BSA-AMC, or BSAox-AMC and incubated for 4 hr at 37° C. Protein degradation was then measured as per FIG. 4. Hbox-AMC, and BSAox were prepared by treating Hb-AMC and BSA-AMC with 1.0 mM H2O2 followed by extensive dialysis. (B) The Capacity of MEF cell lysates to degrade various modified forms of Hb-AMC was measured. Hb-AMC was modified by incubation with dilute HCl at pH 4, 10% 2-mercaptoethanol, 70% methanol, 1 mM peroxynitrite, or 1 mM H2O2, or was boiled at 100° C. for 60 minutes, or subjected to freeze-thawing at −80° C. The substrates were then extensively dialyzed and incubated with 150 μg/ml of MEF cell lysates for 4 hr. In both panels, values are means±SE's, n=3.

Trypsin = assay: Proteolysis of AMC-labeled proteins by trypsin, fluorescence assay (AMC release); assay type: biochemical; settings: for substrate for proteolysis by trypsin, release of fluorescent AMC: AMC-labeled protein 10 μg/ml, 10 μM trypsin
Description: FIG. 3. Proteolysis of AMC-labeled Proteins by Trypsin. […] Values are means±SE's, n=3. […] All assay conditions (including trypsin concentration) were identical to those in A, and each substrate protein was used at a final concentration of 10 μg/ml. […] Values are means±SE's, n=3;
FIG. 4. Protease and Substrate Titration, and Particle Size of Proteolytic Degradation Products. […] Values are means±SE's, n=4, for which the fluorescence of controls was subtracted. […] Background fluorescence or radioactivity were measured in the absence of protease (proteolysis buffer alone), and proteolysis was measured by increased fluorescence or acid-soluble radioactivity after incubation with either 10 μM Trypsin, 1 μg/ml purified 20S proteosome, or 150 μg/ml MEF cell lysate. Percent degradation of Hb-AMC is reported as the percentage of total fluorescence that could be released from Hb-AMC after exhaustive proteolytic digestion (not shown), whereas percent degradation of [3H]Hb is reported as the percent of total (initial) radioactive counts released into TCA-soluble form by proteolysis. All values are means±SE's, n=3;

BSA [1] = molecular target: T2, BSA (Bos taurus, UniProt P02769); assay: Tryptamine competition for non-covalent AMC binding sites on BSA; design: species or system bovine; settings: 100 fold excess
T2 construct: purchased thermo-Fisher BP1605-100
T2 sequence (P02769 25-607): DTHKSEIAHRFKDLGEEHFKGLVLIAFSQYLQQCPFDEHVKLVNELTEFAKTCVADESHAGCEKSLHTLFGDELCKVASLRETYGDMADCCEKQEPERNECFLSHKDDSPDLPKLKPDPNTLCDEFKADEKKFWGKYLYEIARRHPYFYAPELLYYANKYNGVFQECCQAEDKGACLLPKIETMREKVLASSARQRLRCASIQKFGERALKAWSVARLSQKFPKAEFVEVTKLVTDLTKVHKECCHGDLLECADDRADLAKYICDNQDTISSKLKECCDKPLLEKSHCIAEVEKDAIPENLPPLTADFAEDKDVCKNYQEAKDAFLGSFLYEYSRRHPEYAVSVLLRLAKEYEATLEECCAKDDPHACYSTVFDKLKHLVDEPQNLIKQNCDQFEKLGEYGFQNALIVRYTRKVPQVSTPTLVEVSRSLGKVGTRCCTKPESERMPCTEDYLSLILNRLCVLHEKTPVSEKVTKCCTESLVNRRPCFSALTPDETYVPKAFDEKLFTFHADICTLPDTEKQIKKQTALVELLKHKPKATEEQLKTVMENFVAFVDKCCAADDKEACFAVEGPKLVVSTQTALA
Excerpt: (§2) In some experiments samples were pre-treated with either N-(3-Dimethylaminopropyl)-N′-ethylcarbodiimide hydrochloride (Sigma-Aldrich, MO, USA, catalogue#E6383-1G) to block free protein carboxyl groups, with sulfo-N-hydroxysulfosuccinimide-acetate (Pierce, Rockford, Ill., USA, catalogue #26777) to block free protein amino groups, or with tryptamine (Sigma-Aldrich, MO, USA, catalogue#193747-10G) to disrupt potential non-covalent interactions in protein hydrophobic pockets.
Another possibility was that AMC might be sequestered in protein hydrophobic pockets by non-covalent interactions. […] The ability of the BSA/AMC complex to function as a substrate for proteolysis was also tested.

MEF cell lysates = assay: Degradation of modified Hb-AMC by MEF cell lysates; assay type: biochemical, murine; settings: oxidative modification by H2O2 or peroxynitrite
Description: as §1, with “In both panels, values are means±SE's, n=3.” left out
Murine embryonic fibroblasts (MEF) from ATCC (Manassas, Va., USA, catalogue CRL-2214) were grown in Dulbecco's Modified Eagle's Medium (DMEM, Mediatech, Manassas, Va., catalogue #10-013-CV) supplemented with 10% Fetal Bovine Serum (Hyclone, Logan, Utah, catalog #SH30070.03). […] The lysates were then centrifuged at 10,000 g for 10 minutes, after which the supernatants were retained (the pellets discarded) and protein content was determined by BCA assay.

[2] = pH stability of the Hb-AMC complex; assay type: physicochemical; settings: pH 1-12, 4 hr, read after readjusting to pH 7.8
Description: The stability of protein-AMC adducts over the same broad range of pH was determined. […] The viability of protein-AMC complexes as substrates for proteases was tested with widely different pH optima.

proteinase K = molecular target: T3, proteinase K (Parengyodontium album, UniProt P06873); assay: Proteolysis of Hb-AMC by proteinase K (AMC release); assay type: biochemical; settings: pH 11, 4 hr at 37° C.
T3 construct: purchased Oncor S4508
T3 sequence (P06873 106-384): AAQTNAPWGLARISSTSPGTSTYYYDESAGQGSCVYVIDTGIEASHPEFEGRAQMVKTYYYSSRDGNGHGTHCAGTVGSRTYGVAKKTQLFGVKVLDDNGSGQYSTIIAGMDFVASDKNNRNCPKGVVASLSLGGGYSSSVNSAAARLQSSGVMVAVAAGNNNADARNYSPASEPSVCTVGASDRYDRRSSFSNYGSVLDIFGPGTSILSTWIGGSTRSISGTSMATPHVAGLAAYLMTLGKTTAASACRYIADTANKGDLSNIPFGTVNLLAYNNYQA

chymotrypsin = chymotrypsin (Bos taurus, UniProt P00766); assay: Proteolysis of Hb-AMC by chymotrypsin (AMC release); settings: pH 7.8, 4 hr at 37° C.
Description: (§3) In each experiment, pH was adjusted appropriately for the proteinase studied, and samples were incubated at 37° C. for 4 hours.

[3] = Stability of Hb-AMC after frozen storage or denaturation (background release of free AMC); assay type: physicochemical
Description: FIG. 5. Stability of AMC-labeled Hemoglobin After Frozen Storage or Denaturation. (A) Hb-AMC was stored at −20° C. for up to 21 weeks. […] Release of free AMC from the Hb-AMC complex (background fluorescence) was then measured in comparison with control (untreated Hb-AMC). In all three panels, values are means±SE's, n=3;
The stability of AMC-labeled substrates, the resistance of the AMC-protein linkage to various treatments, and the reproducibility of proteolytic assays after prolonged storage are important concerns in weighing the usefulness of the technique of various embodiments of the present invention.
Embodiments of the present invention provide a new way to label proteins for studies of oxidation-induced changes in proteolytic susceptibility. In addition to oxidants, proteolytic substrates are often subjected to various other modifying or denaturing conditions, to test for effects on proteolytic susceptibility, therefore it is important to test the stability of AMC-labeled substrates over a range of harsh conditions.

pepsin = pepsin (Sus scrofa, UniProt P00791); assay: Proteolysis of Hb-AMC by pepsin (AMC release); settings: pH 2, 4 hr at 37° C.
pepsin, sequence (P00791 60-385): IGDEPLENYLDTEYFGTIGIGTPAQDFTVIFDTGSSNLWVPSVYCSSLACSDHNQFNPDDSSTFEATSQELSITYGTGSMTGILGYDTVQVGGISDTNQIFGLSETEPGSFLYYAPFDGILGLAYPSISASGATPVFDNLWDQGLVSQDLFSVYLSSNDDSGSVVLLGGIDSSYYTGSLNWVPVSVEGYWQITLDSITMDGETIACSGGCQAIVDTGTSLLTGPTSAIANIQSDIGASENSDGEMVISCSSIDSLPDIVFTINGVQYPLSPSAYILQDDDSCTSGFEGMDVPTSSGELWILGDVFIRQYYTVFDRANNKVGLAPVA
Description: as §3

BSA [4] = molecular target: T2, BSA; assay: Blocking of exposed amine groups on BSA before AMC labeling; design: species or system bovine; settings: 0.5-50 mM
Excerpt: as §2
To test whether exposed amine groups on the protein might react with the carboxyl group on the fluorophore, we used 0.5-50 mM sulfo-NHS-acetate was used to block exposed amine groups on BSA. […] This implies that the complex formed between AMC and BSA is independent of exposed protein amine groups.

BSA [5] = molecular target: T2, BSA; assay: Blocking of free carboxyl groups on BSA before AMC labeling (SDS-PAGE, native gels, gel fluorescence); design: species or system bovine; settings: 50 mg BSA, 1 h
Description: FIG. 2. […] Values are means±SE, n=3. […] Values are means±SE, n=3. […] A silver stain was later performed. (D) N-(3-Dimethylamineopropyl)-N′-ethylcarbodiimide (1 ng/ml to 100 μg/ml) which blocks free carboxyl groups, was incubated with 50 mg of BSA for 1 hr. BSA was extensively dialyzed then prepared as in panel (C). Increasing concentrations of N-(3-Dimethylamineopropyl)-N′-ethylcarbodiimide, caused a progressive decrease in BSA's electrophoretic mobility, and loss of fluorescence at 66 kDa; a representative gel is shown to the left of the panel, and fluorescence is quantified in the graph to the right; […]
For SDS Page gels, samples were mixed with 25% Nupage loading Dye (Invitrogen, Carlsbad, Calif., USA, catalogue#NP0007) containing 5% 2-mercaptoethanol, Samples were boiled for 3 minutes then added to a 12% Tris-glycine SDS page gel. […] In experiments where gel fluorescence was analyzed, gels were placed in a chamber and exposed to an excitation wavelength of 365 nm. […]

[6] = stored at −20° C., repeated trials over 150 days

- increase in susceptibility to proteasomal degradation (purified 20S proteasome): four
- substrate for the purified proteasome (purified 20S proteasome): rather poor substrates
Molecule: BSA-AMC: AMC-labeled bovine serum albumin
- substrate for proteolysis by trypsin, release of fluorescent AMC (Trypsin): effective and sensitive substrates

Molecule: NCCc1c[nH]c2ccccc12 [tryptamine]
- association between AMC and BSA blocked (BSA [1]): above 30%
- effect on effectiveness of BSA as a proteolytic substrate (BSA [1]): minimal effects

Molecule: Hb-AMC: AMC-labeled hemoglobin, made by reductive labeling with AMC and sodium cyanoborohydride
- degradation by MEF cell extracts versus unmodified (control) Hb-AMC (MEF cell lysates): significantly increased
- decrease in stability of the complex [2]: < 0.2%
- substrate for proteolysis (proteinase K): excellent substrate
- substrate for proteolysis (chymotrypsin): excellent substrate
- stability of the complex to modifying or denaturing conditions ([3]; 1 mM H2O2, 1 mM peroxynitrite, dilute HCl pH 4, 10% 2-mercaptoethanol, freeze-thawing at −80° C., or 50% methanol): almost completely stable
- breakdown of the Hb-AMC complex ([3]; boiling (100° C.) for 60 minutes): 3.1%
- effect of repeated freeze thaw cycles on stability of the complex (background release of free AMC) ([3]; repeated −20° C. freeze-thaw cycles): did not significantly affect the stability
- variation of background AMC release on storage [3, 6]: less than 15%
- sensitivity of proteolytic measurement versus [3H]Hb (purified 20S proteasome; 1 μg/ml purified 20S proteasome): broadly comparable sensitivity
- increase in susceptibility to proteasomal degradation (purified 20S proteasome): more than 300 fold
- substrate for the purified proteasome (purified 20S proteasome): rather poor substrates
- substrate for proteolysis by trypsin, release of fluorescent AMC (Trypsin): effective and sensitive substrates
- increase in AMC liberation after trypsin digestion (Trypsin; Hb labeled by full procedure with AMC and NaCNBH3): 80 fold
- increase in AMC liberation following incubation with trypsin (Trypsin; Hb reacted with AMC alone, no NaCNBH3): six
- background AMC release relative to Hb reacted with AMC alone (Trypsin; full labeling procedure with NaCNBH3): one-sixth
- substrate for proteolysis (Trypsin; pH 7.8, 4 hr at 37° C.): excellent substrate
- variation of trypsin-induced release of AMC on storage (Trypsin; [6]): less than 15%
- substrate for proteolysis (pepsin): excellent substrate

Molecule: CC(=O)ON1C(=O)CC(S(=O)(=O)O)C1=O (centres unmarked) [sulfo-NHS-acetate, sulfo-N-hydroxysulfosuccinimide-acetate]
- change in the fluorescence of the BSA-AMC complex (BSA [4]): no significant change
- free amine groups on BSA blocked (BSA [4]): 80%

Molecule: CCN=C=NCCCN(C)C.Cl [N-(3-Dimethylaminopropyl)-N′-ethylcarbodiimide hydrochloride]
- protein carboxyl-group blocking, decreased electrophoretic mobility (BSA [5]): dose-dependent protein carboxyl-group blocking
- formation of BSA-AMC adducts, fluorescent band at 66 kDa (BSA [5]; then AMC and NaCNBH3): prevented the formation of BSA-AMC adducts

Molecule: SOD-AMC: AMC-labeled superoxide dismutase
- substrate for proteolysis by trypsin, release of fluorescent AMC (Trypsin): effective and sensitive substrates

B1: catalase: catalase with the AMC fluorophore bound (AMC-labeled catalase) (conjugate, UniProt P00432 2-527, looked up)
Catalase: ADNRDPASDQMKHWKEQRAAQKPDVLTTGGGNPVGDKLNSLTVGPRGPLLVQDVVFTDEMAHFDRERIPERVVHAKGAGAFGYFEVTHDITRYSKAKVFEHIGKRTPIAVRFSTVAGESGSADTVRDPRGFAVKFYTEDGNWDLVGNNTPIFFIRDALLFPSFIHSQKRNPQTHLKDPDMVWDFWSLRPESLHQVSFLFSDRGIPDGHRHMNGYGSHTFKLVNANGEAVYCKFHYKTDQGIKNLSVEDAARLAHEDPDYGLRDLFNAIATGNYPSWTLYIQVMTFSEAEIFPFNPFDLTKVWPHGDYPLIPVGKLVLNRNPVNYFAEVEQLAFDPSNMPPGIEPSPDKMLQGRLFAYPDTHRHRLGPNYLQIPVNCPYRARVANYQRDGPMCMMDNQGGAPNYYPNSFSAPEHQPSALEHRTHFSGDVQRFNSANDDNVTQVRTFYLKVLNEEQRKRLCENIAGHLKDAQLFIQKKAVKNFSDVHPEYGSRIQALLDKYNEEKPKNAVHTYVQHGSHLSAREKANL
modifications: AMC fluorophore label
- substrate for proteolysis by trypsin, release of fluorescent AMC (Trypsin): effective and sensitive substrates
